For orientation: stoichiometry N means a count of units in the complex or per binding partner. The Km is the substrate concentration at which the rate is half of its maximum. Usually kcat stands for the maximal rate divided by the concentration of active sites. For orientation: kcat/Km means the turnover number divided by the Michaelis constant.

Data on two substances can be found in paper PMC6160142, “Structural and biochemical characterization of the Cutibacterium acnes exo-β-1,4-mannosidase that targets the N-glycan core of host glycoproteins” (PLoS ONE, 2018).

Series [1] deals with CaMan5_18, exo-β-1,4-mannosidase (GH5 subfamily 18) from Cutibacterium acnes strain 266 (Cutibacterium acnes strain 266). Put plainly: SEC; HiLoad 16/60 Superdex 200 prep grade in 25 mM K2HPO4 pH 7.2, 150 mM NaCl, calibrated with five protein standards. For orientation: Size exclusion chromatography separates by hydrodynamic size, large species first.
Series [2] has as its system O=[N+]([O-])c1ccc(O[C@@H]2O[C@H](CO)[C@@H](O)[C@H](O)[C@@H]2O)cc1. Nature of the series: purified protein. Particulars: stated pHopt and Topt (pH 6.5, 60 °C; methods for pNP sugars give 50 mM sodium phosphate pH 6.0, 50 °C, 10 min); 0.5 to 20 mM substrate.

Regarding “CaMan5_18, exo-β-1,4-mannosidase (GH5 subfamily 18) from Cutibacterium acnes strain 266 (enzyme)”, the stoichiometry N in series [1] worked out at 2.

For the substance “CaMan5_18 (Cutibacterium acnes subsp. acnes)”, in series [2], the Km is reported as 10.4 mM, the kcat was 7.8 s⁻¹ and the kcat/Km was 750 M⁻¹ s⁻¹.
